Results on 47 sequences are retold here after the supplement of paper PMC9233669.

Variants at the floor of the assay were thinned out.

The subject of one data set is biotinyl-Phe-oxazolone. The data set is described as follows: self-aminoacylation, catalytic enhancement (BFO) (fold over background); higher = more active; k-Seq, kA / k0A0; sequences stand for … in GGGAAUGGAUCCACAUCUACGAAUUC…UUCACUGCAGACUUGACGAAGCUG
Put shortly:
(§1)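 Catalytic enhancement equals the median kA over the uncatalyzed rate, the latter read from the low-activity peak of a bimodal Gaussian fit. Values of kA came from fitting each sequence's fraction reacted to a pseudo-first-order model, with 1000 bootstraps. Reacted RNA was captured with streptavidin and quantified by triplicate qPCR and Illumina sequencing after 90 minutes at room temperature with 2–1250 μM biotinyl-aminoacyl-oxazolone and 0.43 μM mutagenized RNA pools bearing a 21-nt variable region.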

In another data set the test system is biotinyl-Met-oxazolone. As to the kind of experiment: self-aminoacylation, catalytic enhancement (BMO) (fold over background); higher = more active; k-Seq, kA / k0A0; sequences stand for … in GGGAAUGGAUCCACAUCUACGAAUUC…UUCACUGCAGACUUGACGAAGCUG
Put shortly: as §1

Another data set relates to biotinyl-Trp-oxazolone. The data set is described as follows: self-aminoacylation, catalytic enhancement (BWO) (fold over background); higher = more active; k-Seq, kA / k0A0; sequences stand for … in GGGAAUGGAUCCACAUCUACGAAUUC…UUCACUGCAGACUUGACGAAGCUG
In a few lines:
as §1

The test system of a further data set is biotinyl-Leu-oxazolone. As to the kind of experiment: self-aminoacylation, catalytic enhancement (BLO) (fold over background); higher = more active; k-Seq, kA / k0A0; sequences stand for … in GGGAAUGGAUCCACAUCUACGAAUUC…UUCACUGCAGACUUGACGAAGCUG
Put shortly: as §1

Regarding “AAAGUUGCUAAUAGUCGCAAG [Fam3.1 aminoacylation ribozyme variant]”, the self-aminoacylation is 3.77 with biotinyl-Phe-oxazolone and 2.06 in the data set with biotinyl-Met-oxazolone.

As for “AAAUUUGCUAAUUGUCGCAAG [Fam3.1 aminoacylation ribozyme variant]”, the self-aminoacylation in the data set with biotinyl-Met-oxazolone is 2.03.

In the case of “AAGCUUGCUAAUAGUCGCAAA [Fam3.1 aminoacylation ribozyme variant]”, the self-aminoacylation in the data set on biotinyl-Phe-oxazolone was 2.75; in the data set with biotinyl-Trp-oxazolone, 2.2; in the data set on biotinyl-Met-oxazolone it was 2.21.

As for “AAGUUCGCGAAUAGUCGCAAG [Fam3.1 aminoacylation ribozyme variant]”, the values for the self-aminoacylation with biotinyl-Phe-oxazolone, in the data set on biotinyl-Trp-oxazolone and in the data set with biotinyl-Met-oxazolone were 5.66, 3.3 and 2.31, respectively.

On to “AAGUUUGCGAAUAGUCGCAAU [Fam3.1 aminoacylation ribozyme variant]”, for which the self-aminoacylation in the data set on biotinyl-Phe-oxazolone came to 6.18; with biotinyl-Met-oxazolone, 2.13.

For “ACGUUUGCUAAAAGUCGCAAG [Fam3.1 aminoacylation ribozyme variant]”, the self-aminoacylation in the data set on biotinyl-Phe-oxazolone stood at 3.93; with biotinyl-Trp-oxazolone it was 3.43; with biotinyl-Met-oxazolone, 2.09.

For the sequence “AUACUUCAAACAAUCGGCCUG [Fam1A.1 aminoacylation ribozyme variant]”, the self-aminoacylation stood at 20.7 with biotinyl-Phe-oxazolone, 15.5 in the data set on biotinyl-Trp-oxazolone and 2.02 in the data set on biotinyl-Leu-oxazolone.

With “AUUAACCUAGGACAUCGGGUG [Fam2.2 aminoacylation ribozyme variant]”, the self-aminoacylation in the data set on biotinyl-Phe-oxazolone was 14.2; in the data set on biotinyl-Trp-oxazolone, 2.82; with biotinyl-Leu-oxazolone, 3.2.

Regarding “AUUCACCCAGGUCAUAGGGUG [Fam2.2 aminoacylation ribozyme variant]”, the self-aminoacylation turned out to be 7.85 in the data set on biotinyl-Phe-oxazolone, 2.08 in the data set with biotinyl-Trp-oxazolone and 2.46 in the data set on biotinyl-Leu-oxazolone.

Regarding “AUUCACCCAGGUCGUCGGGUG [Fam2.2 aminoacylation ribozyme variant]”, the values for the self-aminoacylation in the data set with biotinyl-Phe-oxazolone and in the data set on biotinyl-Leu-oxazolone were 9.93 and 2.84, respectively.

With “AUUCACCUAGGUCAUCGGCAG [Fam2.2 aminoacylation ribozyme variant]”, the self-aminoacylation with biotinyl-Leu-oxazolone amounted to 2.03.

Regarding “CCACACUUCAAGCAAUCGGCU [Fam1B.1 aminoacylation ribozyme variant]”, the self-aminoacylation in the data set with biotinyl-Trp-oxazolone is 2.2; in the data set on biotinyl-Leu-oxazolone, 2.08.

For the sequence “CCACACUUCAAGCCAUCGCUC [Fam1B.1 aminoacylation ribozyme variant]”, the self-aminoacylation is 2.72 in the data set with biotinyl-Trp-oxazolone and 2.19 in the data set with biotinyl-Leu-oxazolone.

Take “CCACGCUUCAAACAAUCGGUC [Fam1B.1 aminoacylation ribozyme variant]”: the self-aminoacylation in the data set on biotinyl-Phe-oxazolone worked out at 92.8; in the data set with biotinyl-Trp-oxazolone, 45.3; in the data set on biotinyl-Leu-oxazolone, 2.17.

“CCAUGCUUCAAGCAAUCGGUC [Fam1B.1 aminoacylation ribozyme variant]”: the self-aminoacylation was determined as 76.2 in the data set on biotinyl-Phe-oxazolone, 39 in the data set with biotinyl-Trp-oxazolone and 2.66 in the data set on biotinyl-Leu-oxazolone.

“CCCCACUUCAAGCAAUCGGUA [Fam1B.1 aminoacylation ribozyme variant]”: the self-aminoacylation in the data set on biotinyl-Phe-oxazolone is 11.8; with biotinyl-Trp-oxazolone, 3.44; in the data set on biotinyl-Leu-oxazolone it was 2.71.

Take “CCCCUCUUCAAGCAAUCGGUC [Fam1B.1 aminoacylation ribozyme variant]”: the self-aminoacylation in the data set on biotinyl-Phe-oxazolone worked out at 49.1; with biotinyl-Trp-oxazolone, 31.2; in the data set on biotinyl-Leu-oxazolone it was 2.09.

Regarding “CCUCACUUCAAGCAAUCGGGC [Fam1B.1 aminoacylation ribozyme variant]”, the self-aminoacylation with biotinyl-Trp-oxazolone was found to be 3.32; with biotinyl-Leu-oxazolone, 2.32.

On to “CCUCGCUUCAAGCAAUCGGUC [Fam1B.1 aminoacylation ribozyme variant]”, for which the figures for the self-aminoacylation with biotinyl-Phe-oxazolone, with biotinyl-Trp-oxazolone and in the data set with biotinyl-Leu-oxazolone were 81.2, 36 and 2.24, respectively.

On to “CGCCACUUCAAGCAAUCGGUC [Fam1B.1 aminoacylation ribozyme variant]”, for which the self-aminoacylation in the data set on biotinyl-Phe-oxazolone came to 37.1; in the data set on biotinyl-Trp-oxazolone, 24.2; in the data set with biotinyl-Leu-oxazolone, 2.26.

Take “CUACGUCAAACAAUCGCUCUG [Fam1A.1 aminoacylation ribozyme variant]”: the self-aminoacylation in the data set with biotinyl-Phe-oxazolone came to 3.08; with biotinyl-Leu-oxazolone it was 2.07.

“CUACUUCAAAAAAUCGGUAUG [Fam1A.1 aminoacylation ribozyme variant]”: the self-aminoacylation in the data set with biotinyl-Phe-oxazolone is 4.4; in the data set on biotinyl-Trp-oxazolone, 2.5.

With “CUACUUCAAACAAUCAGUCGG [Fam1A.1 aminoacylation ribozyme variant]”, the self-aminoacylation with biotinyl-Phe-oxazolone is 11.2; in the data set with biotinyl-Trp-oxazolone it was 5.8.

With “CUACUUCAAACAAUCGGUCCC [Fam1A.1 aminoacylation ribozyme variant]”, the self-aminoacylation was 11.1 with biotinyl-Phe-oxazolone and 6.63 in the data set with biotinyl-Trp-oxazolone.

With “CUACUUCAAAUAAUCGGUCUG [Fam1A.1 aminoacylation ribozyme variant]”, the self-aminoacylation in the data set on biotinyl-Phe-oxazolone is 18.3; with biotinyl-Trp-oxazolone it was 10.5.

Consider “CUACUUCAACAAAUCGGUCUG [Fam1A.1 aminoacylation ribozyme variant]”, for which the results for the self-aminoacylation in the data set with biotinyl-Phe-oxazolone and in the data set on biotinyl-Trp-oxazolone were 7.2 and 5.45, respectively.

Consider “CUACUUCAACCAAUCGGUCGG [Fam1A.1 aminoacylation ribozyme variant]”, for which the self-aminoacylation with biotinyl-Phe-oxazolone was determined as 14.3; in the data set on biotinyl-Trp-oxazolone, 8.86.

As to “CUACUUCAACUAAUCGGUCUG [Fam1A.1 aminoacylation ribozyme variant]”, the self-aminoacylation with biotinyl-Phe-oxazolone came to 12.9; with biotinyl-Trp-oxazolone, 8.63.

As to “CUACUUCAAUCAAUCGGCCUG [Fam1A.1 aminoacylation ribozyme variant]”, the results for the self-aminoacylation in the data set on biotinyl-Phe-oxazolone, in the data set on biotinyl-Trp-oxazolone and in the data set with biotinyl-Leu-oxazolone were 34.9, 30.3 and 2.56, respectively.

Consider “CUCCUUCAAACAAUCGGUCUA [Fam1A.1 aminoacylation ribozyme variant]”, for which the self-aminoacylation in the data set on biotinyl-Phe-oxazolone amounted to 18.5; in the data set on biotinyl-Trp-oxazolone it was 9.25.

Take “CUCCUUCAAUCAAUCGGUCUG [Fam1A.1 aminoacylation ribozyme variant]”: the self-aminoacylation with biotinyl-Phe-oxazolone turned out to be 24.6; with biotinyl-Trp-oxazolone it was 18.4.

On to “CUGCGUCAAACAAUCGGUCUG [Fam1A.1 aminoacylation ribozyme variant]”, for which the self-aminoacylation with biotinyl-Phe-oxazolone was 8.22; with biotinyl-Trp-oxazolone, 7.19.

For “CUGCUACAAACAAUCGGUCUG [Fam1A.1 aminoacylation ribozyme variant]”, the values for the self-aminoacylation with biotinyl-Phe-oxazolone and with biotinyl-Trp-oxazolone were 2.73 and 2.27, respectively.

“CUGCUUCAAACAAUCGGUCAG [Fam1A.1 aminoacylation ribozyme variant]”: the self-aminoacylation in the data set on biotinyl-Phe-oxazolone turned out to be 41.9; with biotinyl-Trp-oxazolone, 23.

Consider “CUGCUUCAAAUAAUCGGUCUG [Fam1A.1 aminoacylation ribozyme variant]”, for which the self-aminoacylation in the data set on biotinyl-Phe-oxazolone was 23.7; in the data set on biotinyl-Trp-oxazolone it was 17.4.

For “CUUCUUCAAACAAUCAGUCUG [Fam1A.1 aminoacylation ribozyme variant]”, the self-aminoacylation in the data set with biotinyl-Phe-oxazolone amounted to 12.3; in the data set with biotinyl-Trp-oxazolone, 5.05.

Turning to “CUUCUUCAAACAAUCGGUUUG [Fam1A.1 aminoacylation ribozyme variant]”, the figures for the self-aminoacylation with biotinyl-Phe-oxazolone and with biotinyl-Trp-oxazolone were 20.7 and 13.8, respectively.

As to “GAGUUUUCUAAUAGUCGCAAG [Fam3.1 aminoacylation ribozyme variant]”, the figures for the self-aminoacylation in the data set with biotinyl-Phe-oxazolone and in the data set on biotinyl-Trp-oxazolone were 3.59 and 2.07, respectively.

For “GCACACUCCAAGCAAUCGGUC [Fam1B.1 aminoacylation ribozyme variant]”, the self-aminoacylation in the data set with biotinyl-Phe-oxazolone is 2.35; in the data set on biotinyl-Trp-oxazolone, 2.53.

In the case of “GUACUUCAAGCAAUCGGUCUG [Fam1A.1 aminoacylation ribozyme variant]”, the self-aminoacylation with biotinyl-Phe-oxazolone worked out at 8.1; in the data set with biotinyl-Trp-oxazolone, 7.17.

“GUGUUUGCUAAUAGUCGCAAG [Fam3.1 aminoacylation ribozyme variant]”: the values for the self-aminoacylation with biotinyl-Phe-oxazolone and in the data set with biotinyl-Trp-oxazolone were 5.9 and 4.15, respectively.

For the sequence “GUUCACCUAGGUCAUAGGGUG [Fam2.2 aminoacylation ribozyme variant]”, the self-aminoacylation amounted to 2.11 in the data set with biotinyl-Phe-oxazolone, 2.22 with biotinyl-Trp-oxazolone and 2.08 with biotinyl-Leu-oxazolone.

As to “UAGUUUCCUAAUAGUCGCAAG [Fam3.1 aminoacylation ribozyme variant]”, the self-aminoacylation was determined as 2.31 with biotinyl-Phe-oxazolone and 2.1 in the data set with biotinyl-Trp-oxazolone.

Turning to “UCACACUUCAAGUAAUCGGUC [Fam1B.1 aminoacylation ribozyme variant]”, the self-aminoacylation with biotinyl-Phe-oxazolone was 12.7; in the data set with biotinyl-Trp-oxazolone, 7.97.

Turning to “UUACUUCAAACAAUCGGUCAG [Fam1A.1 aminoacylation ribozyme variant]”, the figures for the self-aminoacylation in the data set on biotinyl-Phe-oxazolone and with biotinyl-Trp-oxazolone were 8.02 and 5.17, respectively.

For “UUACUUCAAUCAAUCGGUCUG [Fam1A.1 aminoacylation ribozyme variant]”, the self-aminoacylation in the data set on biotinyl-Phe-oxazolone was 19.7; in the data set on biotinyl-Trp-oxazolone, 15.

As to “UUAUUUCAAACAAUCGGUCUG [Fam1A.1 aminoacylation ribozyme variant]”, the self-aminoacylation with biotinyl-Phe-oxazolone was found to be 5.5; in the data set with biotinyl-Trp-oxazolone, 3.27.
